Values belong to the binder of their own block, whether it stands above or below them. Where no end group is shown, it is not given here. The star is where a group is joined. TAMRA = 5-carboxytetramethylrhodamine, CN(C)c1ccc2c(-c3ccc(C(=O)*)cc3C(=O)[O-])c3ccc(=[N+](C)C)cc-3oc2c1
Tests used:
[1] = molecular target: T1, A1 protein (mouse, residues 1-152, P104K C113S, used as wild type) (mouse); test: stopped-flow fluorescence kinetics; association; TAMRA-labelled peptide with folded partner at least 10-fold higher (pseudo-first-order); kon from the gradient of kobs versus partner concentration; 25 °C; 50 mM sodium phosphate, 0.05% (v/v) Tween 20, pH 7.0
T1 sequence (Q07440 1-152 with P104K C113S, looked up): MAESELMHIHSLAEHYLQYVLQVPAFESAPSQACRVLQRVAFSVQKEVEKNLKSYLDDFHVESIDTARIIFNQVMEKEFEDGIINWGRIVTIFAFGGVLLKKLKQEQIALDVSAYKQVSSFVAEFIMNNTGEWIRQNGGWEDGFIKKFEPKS

[2] = molecular target: T2, MCL-1 (mouse, residues 152-308) (mouse); test: stopped-flow fluorescence kinetics; association; TAMRA-labelled peptide with folded partner at least 10-fold higher (pseudo-first-order); kon from the gradient of kobs versus partner concentration; 25 °C; 50 mM sodium phosphate, 0.05% (v/v) Tween 20, pH 7.0; conditions: both partners purified
T2 construct: remnant of thrombin cleavage at the N-terminus of MCL-1; MCL-1, mouse, residues 152-308, UniProt P97287; source: E. coli C41 pLysS, purified (Ni2+ agarose, thrombin cleavage, ion exchange, Superdex G75 gel filtration); not shown: His6, N-terminal, cleaved
T2 chain: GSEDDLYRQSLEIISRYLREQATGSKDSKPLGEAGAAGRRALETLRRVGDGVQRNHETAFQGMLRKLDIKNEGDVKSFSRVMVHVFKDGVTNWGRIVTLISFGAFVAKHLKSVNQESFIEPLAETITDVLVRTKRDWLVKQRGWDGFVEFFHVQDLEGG
Procedure, shortened: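 For kon, stopped-flow fluorescence traces of TAMRA-labelled peptide mixed with mouse MCL-1 (residues 152–308) were fitted to single exponentials to give kobs, and kon was taken as the slope of kobs against partner concentration. Runs used at least 10-fold partner excess at 25 °C in 50 mM sodium phosphate, 0.05% (v/v) Tween 20, pH 7.0, with 555 nm excitation and emission above 570 nm. Data before the 1 ms deadtime were removed, and at least 15 traces were averaged.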

[3] = molecular target: T1, A1 protein (mouse, residues 1-152, P104K C113S, used as wild type) (mouse); test: stopped-flow fluorescence kinetics + other: fluorescence dissociation kinetics with competitor; Kd calculated as the ratio koff/kon of the kinetic rate constants; 25 °C; 50 mM sodium phosphate, 0.05% (v/v) Tween 20, pH 7.0
[4] = molecular target: T1, A1 protein (mouse, residues 1-152, P104K C113S, used as wild type) (mouse); test: fluorescence dissociation kinetics with competitor; dissociation; preformed complex of TAMRA-labelled peptide and partner protein mixed with excess unlabeled PUMA peptide as competitor; stopped-flow or Cary Eclipse spectrophotometer; 25 °C; 50 mM sodium phosphate, 0.05% (v/v) Tween 20, pH …
[5] = molecular target: T2, MCL-1 (mouse, residues 152-308); test: fluorescence dissociation kinetics with competitor; dissociation; preformed complex of TAMRA-labelled peptide and partner protein mixed with excess unlabeled PUMA peptide as competitor; stopped-flow or Cary Eclipse spectrophotometer; 25 °C; 50 mM sodium phosphate, 0.05% (v/v) Tween 20, pH 7.0; conditions: both partners purified
Procedure, shortened: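 The dissociation rate constant comes from competitor displacement of a preformed complex of TAMRA-labelled peptide and mouse MCL-1 (residues 152–308), mixed with various concentrations of unlabelled competitor peptide. Runs were at 25 °C in 50 mM sodium phosphate, 0.05% (v/v) Tween 20, pH 7.0, read on stopped-flow (kobs > 0.03 s^−1) or Cary Eclipse (kobs < 0.03 s^−1). Fluorescence changes were fit to single exponentials. With sufficient competitor excess, concentration-independent kobs values were averaged as koff.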

[6] = molecular target: T2, MCL-1 (mouse, residues 152-308); test: stopped-flow fluorescence kinetics + other: fluorescence dissociation kinetics with competitor; Kd calculated as the ratio koff/kon of the kinetic rate constants; 25 °C; 50 mM sodium phosphate, 0.05% (v/v) Tween 20, pH 7.0; conditions: both partners purified

- kon [1]: 8.2e+06 M⁻¹ s⁻¹
- kon [2]: 8.9e+06 M⁻¹ s⁻¹
- Kd [3]: 0.019 nM
- koff [4]: 0.000155 s⁻¹
- koff [5]: 0.003 s⁻¹
- Kd [6]: 0.33 nM
B1: BID peptide (mouse, residues 76-110), TAMRA-labelled (peptide)
chain: {TAMRA}-SESQEEIIHNIARHLAQIGDEMDHNIQPTLVRQLA
notes: BID, mouse, residues 76-110, UniProt P70444; also called WT; source: synthetic peptide (Biomatik)

- kon [2]: 9.5e+06 M⁻¹ s⁻¹
- koff [5]: 0.0062 s⁻¹
- Kd [6]: 0.65 nM
B2: BID I82A peptide, TAMRA-labelled (peptide, UniProt P70444 76-110, looked up)
chain: {TAMRA}-SESQEEAIHNIARHLAQIGDEMDHNIQPTLVRQLA
notes: BID, mouse, residues 76-110, UniProt P70444; source: synthetic peptide (Biomatik)

- kon [2]: 9e+06 M⁻¹ s⁻¹
- koff [5]: 0.004 s⁻¹
- Kd [6]: 0.4 nM
B3: BID H99G peptide, TAMRA-labelled (peptide, UniProt P70444 76-110, looked up)
chain: {TAMRA}-SESQEEIIHNIARHLAQIGDEMDGNIQPTLVRQLA
notes: as for B2

- kon [1]: 4.9e+06 M⁻¹ s⁻¹
- kon [2]: 8.3e+06 M⁻¹ s⁻¹
- Kd [3]: 0.6 nM
- koff [4]: 0.00303 s⁻¹
- koff [5]: 0.015 s⁻¹
- Kd [6]: 1.8 nM
B4: BID R88G peptide, TAMRA-labelled (peptide, UniProt P70444 76-110, looked up)
chain: {TAMRA}-SESQEEIIHNIAGHLAQIGDEMDHNIQPTLVRQLA
notes: as for B2

- kon [1]: 5.6e+06 M⁻¹ s⁻¹
- kon [2]: 4.5e+06 M⁻¹ s⁻¹
- Kd [3]: 0.44 nM
- koff [4]: 0.0025 s⁻¹
- koff [5]: 0.43 s⁻¹
- Kd [6]: 96 nM
B5: BID I93A peptide, TAMRA-labelled (peptide, UniProt P70444 76-110, looked up)
chain: {TAMRA}-SESQEEIIHNIARHLAQAGDEMDHNIQPTLVRQLA
notes: as for B2

- kon [1]: 1e+07 M⁻¹ s⁻¹
- kon [2]: 9.9e+06 M⁻¹ s⁻¹
- Kd [3]: 0.015 nM
- koff [4]: 0.000146 s⁻¹
- koff [5]: 0.0038 s⁻¹
- Kd [6]: 0.38 nM
B6: BID E96A peptide, TAMRA-labelled (peptide, UniProt P70444 76-110, looked up)
chain: {TAMRA}-SESQEEIIHNIARHLAQIGDAMDHNIQPTLVRQLA
notes: as for B2

- kon [1]: 5.3e+06 M⁻¹ s⁻¹
- kon [2]: 1e+07 M⁻¹ s⁻¹
- Kd [3]: 0.16 nM
- koff [4]: 0.00088 s⁻¹
- koff [5]: 0.0063 s⁻¹
- Kd [6]: 0.6 nM
B7: BID R88A peptide, TAMRA-labelled (peptide, UniProt P70444 76-110, looked up)
chain: {TAMRA}-SESQEEIIHNIAAHLAQIGDEMDHNIQPTLVRQLA
notes: as for B2

- kon [1]: 2.2e+06 M⁻¹ s⁻¹
- kon [2]: 3.5e+06 M⁻¹ s⁻¹
- Kd [3]: 50 nM
- koff [4]: 0.11 s⁻¹
- koff [5]: 1.36 s⁻¹
- Kd [6]: 390 nM
B8: BID I86A-M97A peptide, TAMRA-labelled (peptide, UniProt P70444 76-110, looked up)
chain: {TAMRA}-SESQEEIIHNAARHLAQIGDEADHNIQPTLVRQLA
notes: as for B2

- kon [1]: 8.1e+06 M⁻¹ s⁻¹
- kon [2]: 7.8e+06 M⁻¹ s⁻¹
- Kd [3]: 0.19 nM
- koff [4]: 0.0015 s⁻¹
- koff [5]: 0.03 s⁻¹
- Kd [6]: 3.8 nM
B9: BID M97A peptide, TAMRA-labelled (peptide, UniProt P70444 76-110, looked up)
chain: {TAMRA}-SESQEEIIHNIARHLAQIGDEADHNIQPTLVRQLA
notes: as for B2

- kon [1]: 7.8e+06 M⁻¹ s⁻¹
- kon [2]: 1.09e+07 M⁻¹ s⁻¹
- Kd [3]: 0.098 nM
- koff [4]: 0.00077 s⁻¹
- koff [5]: 0.01 s⁻¹
- Kd [6]: 0.9 nM
B10: BID E96G peptide, TAMRA-labelled (peptide, UniProt P70444 76-110, looked up)
chain: {TAMRA}-SESQEEIIHNIARHLAQIGDGMDHNIQPTLVRQLA
notes: as for B2

- kon [1]: 2.9e+06 M⁻¹ s⁻¹
- kon [2]: 4e+06 M⁻¹ s⁻¹
- Kd [3]: 7.6 nM
- koff [4]: 0.022 s⁻¹
- koff [5]: 0.14 s⁻¹
- Kd [6]: 35 nM
B11: BID I86A peptide, TAMRA-labelled (peptide, UniProt P70444 76-110, looked up)
chain: {TAMRA}-SESQEEIIHNAARHLAQIGDEMDHNIQPTLVRQLA
notes: as for B2

- kon [2]: 9.2e+06 M⁻¹ s⁻¹
- koff [5]: 0.001 s⁻¹
- Kd [6]: 0.12 nM
B12: BID H99A peptide, TAMRA-labelled (peptide, UniProt P70444 76-110, looked up)
chain: {TAMRA}-SESQEEIIHNIARHLAQIGDEMDANIQPTLVRQLA
notes: as for B2

- kon [1]: 4.84e+06 M⁻¹ s⁻¹
- Kd [3]: 0.444 nM
- koff [4]: 0.00215 s⁻¹
Binder: {TAMRA}-RVEEEEWAREIGAQLRRAADDLNGQYERRRQEEQH [PUMA A150G peptide (on the M144A wild type), TAMRA-labelled]

- kon [1]: 8.2e+06 M⁻¹ s⁻¹
- Kd [3]: 0.29 nM
- koff [4]: 0.00238 s⁻¹
Binder: {TAMRA}-RVEEEEWARGIGAQLRRAADDLNAQYERRRQEEQH [PUMA E136G peptide (on the M144A wild type), TAMRA-labelled]

- kon [1]: 8.4e+06 M⁻¹ s⁻¹
- Kd [3]: 0.102 nM
- koff [4]: 0.00086 s⁻¹
Binder: {TAMRA}-RVEEEGWAREIGAQLRRAADDLNAQYERRRQEEQH [PUMA E132G peptide (on the M144A wild type), TAMRA-labelled]

- kon [1]: 3.03e+06 M⁻¹ s⁻¹
- Kd [3]: 1.72 nM
- koff [4]: 0.0052 s⁻¹
Binder: {TAMRA}-RVEEEEWAREIGAQLRGAADDLNAQYERRRQEEQH [PUMA R143G peptide (on the M144A wild type), TAMRA-labelled]

- kon [1]: 4.79e+06 M⁻¹ s⁻¹
- Kd [3]: 0.092 nM
- koff [4]: 0.00044 s⁻¹
Binder: {TAMRA}-RVEEEEWAREIGAQLRRAADDLNAQYEGRRQEEQH [PUMA R154G peptide (on the M144A wild type), TAMRA-labelled]

- kon [1]: 6.76e+06 M⁻¹ s⁻¹
- Kd [3]: 0.288 nM
- koff [4]: 0.00195 s⁻¹
Binder: {TAMRA}-RVEEEEWAREIGAQLRRAADGLNAQYERRRQEEQH [PUMA D147G peptide (on the M144A wild type), TAMRA-labelled]

- kon [1]: 5.9e+06 M⁻¹ s⁻¹
- Kd [3]: 0.085 nM
- koff [4]: 0.0005 s⁻¹
Binder: {TAMRA}-RVEEEEWAREIGAQLRRAADDLNAQYERRRQEEQH [PUMA peptide (mouse, residues 127-161, M144A, used as wild type), TAMRA-labelled]

- kon [1]: 3.26e+06 M⁻¹ s⁻¹
- Kd [3]: 0.33 nM
- koff [4]: 0.00108 s⁻¹
Binder: {TAMRA}-RVEEEEWAREIGGQLRRAADDLNAQYERRRQEEQH [PUMA A139G peptide (on the M144A wild type), TAMRA-labelled]

- kon [1]: 9.4e+06 M⁻¹ s⁻¹
- Kd [3]: 0.051 nM
- koff [4]: 0.00048 s⁻¹
Binder: {TAMRA}-RVEEEEWAREIGAQLRRAADALNAQYERRRQEEQH [PUMA D147A peptide (on the M144A wild type), TAMRA-labelled]

- kon [1]: 5.1e+06 M⁻¹ s⁻¹
- Kd [3]: 0.49 nM
- koff [4]: 0.00251 s⁻¹
Binder: {TAMRA}-RVEEEEWAREIGAQLRRAADDLNAQAERRRQEEQH [PUMA Y152A peptide (on the M144A wild type), TAMRA-labelled]

- kon [1]: 1.64e+06 M⁻¹ s⁻¹
- Kd [3]: 3.7 nM
- koff [4]: 0.006 s⁻¹
Binder: {TAMRA}-RVEEEEWAREAGAQLRRAADDLNAQYERRRQEEQH [PUMA I137A peptide (on the M144A wild type), TAMRA-labelled]

- kon [1]: 1.04e+07 M⁻¹ s⁻¹
- Kd [3]: 0.046 nM
- koff [4]: 0.00048 s⁻¹
Binder: {TAMRA}-RVEEEEWARAIGAQLRRAADDLNAQYERRRQEEQH [PUMA E136A peptide (on the M144A wild type), TAMRA-labelled]

- kon [1]: 4.86e+06 M⁻¹ s⁻¹
- Kd [3]: 0.111 nM
- koff [4]: 0.00054 s⁻¹
Binder: {TAMRA}-RVEEEEWAREIGAQLRRAADDLNAQYEARRQEEQH [PUMA R154A peptide (on the M144A wild type), TAMRA-labelled]

- kon [1]: 4.27e+06 M⁻¹ s⁻¹
- Kd [3]: 0.475 nM
- koff [4]: 0.00203 s⁻¹
Binder: {TAMRA}-RVEEEEFAREIGAQLRRAADDLNAQYERRRQEEQH [PUMA W133F peptide (on the M144A wild type), TAMRA-labelled]

- kon [1]: 8.8e+06 M⁻¹ s⁻¹
- Kd [3]: 0.088 nM
- koff [4]: 0.00077 s⁻¹
Binder: {TAMRA}-RVEEEAWAREIGAQLRRAADDLNAQYERRRQEEQH [PUMA E132A peptide (on the M144A wild type), TAMRA-labelled]

- kon [1]: 3.67e+06 M⁻¹ s⁻¹
- Kd [3]: 0.24 nM
- koff [4]: 0.00088 s⁻¹
Binder: {TAMRA}-RVEEEEWAREIGAQLRAAADDLNAQYERRRQEEQH [PUMA R143A peptide (on the M144A wild type), TAMRA-labelled]
